According to patent WO2021190480A1 (dated 2021):

Biological target: T1, His-tagged human TROP-2 protein (TROP-2-His), Sino Biological cat# 10428-H08H (human, UniProt P09758 27-274)
T1 construct: also called TROP-2His protein; human TROP-2His antigen; not shown: His tag
T1 sequence (looked up): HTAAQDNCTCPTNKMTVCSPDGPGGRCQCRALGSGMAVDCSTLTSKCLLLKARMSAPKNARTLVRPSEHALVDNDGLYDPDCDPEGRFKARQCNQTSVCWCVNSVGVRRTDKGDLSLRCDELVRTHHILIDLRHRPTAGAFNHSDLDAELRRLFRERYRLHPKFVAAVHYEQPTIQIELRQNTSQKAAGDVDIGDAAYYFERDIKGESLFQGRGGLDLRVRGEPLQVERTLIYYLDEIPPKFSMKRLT
Experiment: indirect ELISA, TROP-2-His coated at 1 ug/ml

- EC50: 0.56 nM
B1: murine monoclonal antibody M1 (antibody, V domains shown)
VH: QVQLQQPGAELVRPGASVKLSCRASGYTFTNYWMNWVKQRPEQGLEWIGRIDPNDSETHYNQKFKDRAILTVDKASNTAYMQLSGLTSEDSAVHYCARSGFGSTYWFFDVWGAGTTVTVSS
VL: DIVMTQSHKFMSTSVGDRVSITCKASQDVSTAVAWYQQKPGQSPKLLIYSASYRYTGVPDRFAGSGYGTDFTFTISSVQTEDLTVYHCQQHYSTPLTFGPGTRLELK
